In US20100041597A1, “PEPTIDES TARGETED TO PROTEIN KINASE C ISOFORMS AND USES THEREOF” (priority 2005, published 2010):

Columns and labels:
[1] = target: PKC-βI (purified isoform) (Homo sapiens (Human)), P05771; assay: competitive ELISA on purified PKC-βI vs anti-PKC-βI Ab; PRE 50 µM; settings: remark: other sources report otherwise
[2] = target: PKC-βI (purified isoform) (Homo sapiens (Human)), P05771; assay: competitive ELISA on purified PKC-βI vs anti-PKC-βI Ab; PRE 100 µM; settings: remark: other sources report otherwise
[3] = target: PKC-βI (purified isoform) (Homo sapiens (Human)), P05771; assay: competitive ELISA on purified PKC-βI vs anti-PKC-βI Ab; PRE 200 µM; settings: remark: other sources report otherwise
[4] = target: PKC-δ (purified isoform) (Homo sapiens (Human)) (UniProt Q05655); assay: competitive ELISA on purified PKC-δ vs anti-PKC-δ Ab; PRE 50 µM
PKC-δ (purified isoform) (Homo sapiens (Human)), sequence (Q05655 whole entry, stated change not applied, canonical isoform): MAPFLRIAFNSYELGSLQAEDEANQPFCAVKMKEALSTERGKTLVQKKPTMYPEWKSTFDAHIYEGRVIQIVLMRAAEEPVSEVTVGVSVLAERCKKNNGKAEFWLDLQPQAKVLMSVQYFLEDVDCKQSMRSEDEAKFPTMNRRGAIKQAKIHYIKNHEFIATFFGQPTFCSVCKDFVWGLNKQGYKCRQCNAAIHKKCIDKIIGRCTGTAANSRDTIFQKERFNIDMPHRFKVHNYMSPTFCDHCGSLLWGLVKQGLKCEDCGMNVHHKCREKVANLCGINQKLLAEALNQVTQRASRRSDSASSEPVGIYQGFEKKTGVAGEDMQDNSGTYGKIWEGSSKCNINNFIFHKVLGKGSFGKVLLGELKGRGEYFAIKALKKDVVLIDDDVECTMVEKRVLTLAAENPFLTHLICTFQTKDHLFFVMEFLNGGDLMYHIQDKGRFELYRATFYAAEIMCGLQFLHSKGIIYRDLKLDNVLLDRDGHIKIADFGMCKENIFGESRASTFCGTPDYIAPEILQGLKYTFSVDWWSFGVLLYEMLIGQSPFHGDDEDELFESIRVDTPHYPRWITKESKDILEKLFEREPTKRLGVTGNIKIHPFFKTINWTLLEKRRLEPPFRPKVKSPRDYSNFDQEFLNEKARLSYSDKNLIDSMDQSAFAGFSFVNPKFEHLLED

[5] = target: PKC-δ (purified isoform) (Homo sapiens (Human)) (UniProt Q05655); assay: competitive ELISA on purified PKC-δ vs anti-PKC-δ Ab; PRE 100 µM
[6] = target: PKC-δ (purified isoform) (Homo sapiens (Human)) (UniProt Q05655); assay: competitive ELISA on purified PKC-δ vs anti-PKC-δ Ab; PRE 200 µM
[7] = target: PKC-βI (purified isoform) (Homo sapiens (Human)) (UniProt P05771); assay: competitive ELISA on purified PKC-βI vs anti-PKC-βI Ab; PRE 50 µM
PKC-βI (purified isoform) (Homo sapiens (Human)), sequence (P05771 2-671 limits assumed): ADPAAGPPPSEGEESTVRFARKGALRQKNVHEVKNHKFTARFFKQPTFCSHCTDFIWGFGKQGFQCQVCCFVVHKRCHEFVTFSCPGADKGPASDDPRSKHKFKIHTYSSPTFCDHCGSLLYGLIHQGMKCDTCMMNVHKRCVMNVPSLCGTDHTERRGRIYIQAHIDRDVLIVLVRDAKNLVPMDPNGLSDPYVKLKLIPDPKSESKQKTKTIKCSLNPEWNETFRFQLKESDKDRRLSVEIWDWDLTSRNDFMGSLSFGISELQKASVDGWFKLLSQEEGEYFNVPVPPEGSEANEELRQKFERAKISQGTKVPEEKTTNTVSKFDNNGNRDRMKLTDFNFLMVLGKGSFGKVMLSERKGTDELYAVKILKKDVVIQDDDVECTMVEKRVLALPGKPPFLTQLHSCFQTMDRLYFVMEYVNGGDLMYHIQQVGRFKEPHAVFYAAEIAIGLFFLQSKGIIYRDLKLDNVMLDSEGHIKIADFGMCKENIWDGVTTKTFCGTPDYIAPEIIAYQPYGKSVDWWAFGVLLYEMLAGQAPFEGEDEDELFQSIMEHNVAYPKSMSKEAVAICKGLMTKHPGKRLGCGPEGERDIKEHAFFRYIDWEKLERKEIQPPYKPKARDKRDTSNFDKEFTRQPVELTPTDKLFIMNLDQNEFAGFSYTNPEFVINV

[8] = target: PKC-βI (purified isoform) (Homo sapiens (Human)) (UniProt P05771); assay: competitive ELISA on purified PKC-βI vs anti-PKC-βI Ab; PRE 100 µM
[9] = target: PKC-βI (purified isoform) (Homo sapiens (Human)) (UniProt P05771); assay: competitive ELISA on purified PKC-βI vs anti-PKC-βI Ab; PRE 200 µM
[10] = target: PKC-βII (purified isoform) (Homo sapiens (Human)) (UniProt P05771); assay: competitive ELISA on purified PKC-βII vs anti-PKC-βII Ab; PRE 50 µM
PKC-βII (purified isoform) (Homo sapiens (Human)), sequence (P05771 other isoform, or with tags, fused parts or gaps limits assumed): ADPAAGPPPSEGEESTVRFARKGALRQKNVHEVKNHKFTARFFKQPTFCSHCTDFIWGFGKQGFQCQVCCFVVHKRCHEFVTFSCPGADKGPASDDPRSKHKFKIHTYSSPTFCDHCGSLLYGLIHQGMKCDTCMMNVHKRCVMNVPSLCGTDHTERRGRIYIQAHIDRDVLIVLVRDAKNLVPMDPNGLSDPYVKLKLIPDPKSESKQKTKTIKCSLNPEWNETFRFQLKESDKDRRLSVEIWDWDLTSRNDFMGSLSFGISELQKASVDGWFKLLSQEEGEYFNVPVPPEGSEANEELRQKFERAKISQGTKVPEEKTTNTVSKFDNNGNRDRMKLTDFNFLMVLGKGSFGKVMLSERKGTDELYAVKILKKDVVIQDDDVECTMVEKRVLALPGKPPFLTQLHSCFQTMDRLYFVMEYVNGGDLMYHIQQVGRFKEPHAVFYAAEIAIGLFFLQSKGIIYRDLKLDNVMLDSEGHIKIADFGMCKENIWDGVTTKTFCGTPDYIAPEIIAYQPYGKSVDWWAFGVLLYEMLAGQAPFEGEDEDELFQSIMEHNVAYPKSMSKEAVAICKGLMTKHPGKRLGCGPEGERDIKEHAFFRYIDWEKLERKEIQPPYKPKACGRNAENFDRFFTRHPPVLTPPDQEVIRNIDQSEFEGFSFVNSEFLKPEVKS

[11] = target: PKC-βII (purified isoform) (Homo sapiens (Human)) (UniProt P05771); assay: competitive ELISA on purified PKC-βII vs anti-PKC-βII Ab; PRE 100 µM
[12] = target: PKC-βII (purified isoform) (Homo sapiens (Human)) (UniProt P05771); assay: competitive ELISA on purified PKC-βII vs anti-PKC-βII Ab; PRE 200 µM
[13] = target: PKC-ε (purified isoform) (Homo sapiens (Human)) (UniProt Q02156); assay: competitive ELISA on purified PKC-ε vs anti-PKC-ε Ab; PRE 50 µM
PKC-ε (purified isoform) (Homo sapiens (Human)), sequence (Q02156 whole entry, canonical isoform): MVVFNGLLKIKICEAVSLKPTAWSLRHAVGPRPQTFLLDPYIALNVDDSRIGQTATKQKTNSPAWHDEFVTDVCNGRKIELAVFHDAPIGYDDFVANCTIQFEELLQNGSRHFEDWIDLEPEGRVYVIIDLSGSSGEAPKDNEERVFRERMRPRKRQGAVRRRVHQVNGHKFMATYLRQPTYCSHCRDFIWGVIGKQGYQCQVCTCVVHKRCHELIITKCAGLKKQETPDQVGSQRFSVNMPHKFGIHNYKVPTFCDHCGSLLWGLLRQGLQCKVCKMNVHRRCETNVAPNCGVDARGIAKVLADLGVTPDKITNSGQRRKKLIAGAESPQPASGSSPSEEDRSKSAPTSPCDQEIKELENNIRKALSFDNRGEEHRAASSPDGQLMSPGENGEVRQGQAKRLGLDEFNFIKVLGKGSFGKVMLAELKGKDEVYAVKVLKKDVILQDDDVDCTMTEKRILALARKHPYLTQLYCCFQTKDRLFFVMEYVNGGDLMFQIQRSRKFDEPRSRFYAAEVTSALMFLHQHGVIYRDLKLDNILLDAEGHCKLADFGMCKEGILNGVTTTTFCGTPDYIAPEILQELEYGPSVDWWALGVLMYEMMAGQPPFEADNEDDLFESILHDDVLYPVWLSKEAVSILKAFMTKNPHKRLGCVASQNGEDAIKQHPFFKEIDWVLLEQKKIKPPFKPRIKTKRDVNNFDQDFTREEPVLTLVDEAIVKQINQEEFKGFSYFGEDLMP

[14] = target: PKC-ε (purified isoform) (Homo sapiens (Human)) (UniProt Q02156); assay: competitive ELISA on purified PKC-ε vs anti-PKC-ε Ab; PRE 100 µM
[15] = target: PKC-ε (purified isoform) (Homo sapiens (Human)) (UniProt Q02156); assay: competitive ELISA on purified PKC-ε vs anti-PKC-ε Ab; PRE 200 µM

PKC-βI (purified isoform) (Homo sapiens (Human)), P05771, sequence (P05771 2-671 limits assumed): as the sequence (P05771 2-671 limits assumed) above

| Binder | binding capacity (%) [7] [%] | binding capacity (%) [8] [%] | binding capacity (%) [9] [%] | binding capacity (%) [10] [%] | binding capacity (%) [11] [%] | binding capacity (%) [12] [%] | other results |
| --- | --- | --- | --- | --- | --- | --- | --- |
| ILEDKGGDAQNLIGISI [PRE 8] |  |  |  |  |  |  | binding capacity (%) [1]: 0%; binding capacity (%) [2]: 0%; binding capacity (%) [3]: 0% |
| Ac-ISIGILNQADK-NH2 [PRE 10] | 3.77 | 4.35 | 0 |  |  |  | binding capacity (%) [4]: 0%; binding capacity (%) [5]: 0%; binding capacity (%) [6]: 9.47% |
| Ac-RDAQNLIGISI-NH2 [PRE 11] | 9.86 | 14.2 | 12.5 | 7.14 | 11 | 6.4 |  |
| Ac-AKGIQEVKGGKDAQNLIGISI-NH2 [PRE 5] | 0 | 0 | 0 |  |  |  |  |
| Ac-ISIGILQNADK-NH2 [PRE 7] |  |  |  | 5.42 | 11.1 | 2.59 |  |
| RRKKGGKDFVVKR [PRE 1] |  |  |  |  |  |  | binding capacity (%) [13]: 19.8%; binding capacity (%) [14]: 5.47%; binding capacity (%) [15]: 0.83% |
